{"source": "patent US20050221292A1", "key": {"[1]": {"target": "T1, F(MMP#2): Sendai virus F protein with the activation site modified to PLG↓MTS (UniProt P04855)", "T1 sequence": "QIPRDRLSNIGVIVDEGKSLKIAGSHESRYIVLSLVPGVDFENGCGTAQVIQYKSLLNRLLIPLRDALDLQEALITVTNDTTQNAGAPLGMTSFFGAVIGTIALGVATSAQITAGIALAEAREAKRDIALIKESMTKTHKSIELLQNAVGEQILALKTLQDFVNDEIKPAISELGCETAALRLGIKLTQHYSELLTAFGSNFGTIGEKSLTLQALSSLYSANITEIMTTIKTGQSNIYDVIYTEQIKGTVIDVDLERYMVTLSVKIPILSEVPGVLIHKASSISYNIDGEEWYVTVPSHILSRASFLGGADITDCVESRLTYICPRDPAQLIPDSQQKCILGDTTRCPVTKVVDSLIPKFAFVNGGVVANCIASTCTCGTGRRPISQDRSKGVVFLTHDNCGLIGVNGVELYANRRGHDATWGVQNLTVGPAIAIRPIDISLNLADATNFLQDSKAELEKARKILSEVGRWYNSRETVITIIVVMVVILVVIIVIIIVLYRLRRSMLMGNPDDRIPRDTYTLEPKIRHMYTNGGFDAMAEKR"}, "[2]": {"target": "T2, F(uPA): Sendai virus F protein with the activation site modified to VGR (UniProt P04855)", "T2 sequence": "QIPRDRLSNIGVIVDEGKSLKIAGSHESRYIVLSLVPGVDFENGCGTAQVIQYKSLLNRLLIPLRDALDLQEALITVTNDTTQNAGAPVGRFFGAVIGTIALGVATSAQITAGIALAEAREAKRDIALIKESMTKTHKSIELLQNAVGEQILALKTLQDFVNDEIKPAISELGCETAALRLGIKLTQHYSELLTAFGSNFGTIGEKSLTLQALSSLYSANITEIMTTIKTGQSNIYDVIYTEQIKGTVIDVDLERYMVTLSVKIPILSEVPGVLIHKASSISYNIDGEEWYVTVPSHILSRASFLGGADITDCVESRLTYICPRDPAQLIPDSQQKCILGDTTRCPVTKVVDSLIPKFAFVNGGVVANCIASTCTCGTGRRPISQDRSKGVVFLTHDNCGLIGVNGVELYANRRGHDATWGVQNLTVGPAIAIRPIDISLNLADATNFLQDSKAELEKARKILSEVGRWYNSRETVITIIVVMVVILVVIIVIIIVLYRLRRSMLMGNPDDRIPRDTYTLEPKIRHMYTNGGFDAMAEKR"}, "[3]": {"target": "T3, Sendai virus (SeV) F protein, wild type (unmodified F) (UniProt P04855)", "T3 sequence": "T2 sequence with V89Q, G90S"}, "[4]": {"target": "T4, Fct14(MMP#6)/Linker/HN chimeric protein (UniProt P04855)", "T4 sequence": "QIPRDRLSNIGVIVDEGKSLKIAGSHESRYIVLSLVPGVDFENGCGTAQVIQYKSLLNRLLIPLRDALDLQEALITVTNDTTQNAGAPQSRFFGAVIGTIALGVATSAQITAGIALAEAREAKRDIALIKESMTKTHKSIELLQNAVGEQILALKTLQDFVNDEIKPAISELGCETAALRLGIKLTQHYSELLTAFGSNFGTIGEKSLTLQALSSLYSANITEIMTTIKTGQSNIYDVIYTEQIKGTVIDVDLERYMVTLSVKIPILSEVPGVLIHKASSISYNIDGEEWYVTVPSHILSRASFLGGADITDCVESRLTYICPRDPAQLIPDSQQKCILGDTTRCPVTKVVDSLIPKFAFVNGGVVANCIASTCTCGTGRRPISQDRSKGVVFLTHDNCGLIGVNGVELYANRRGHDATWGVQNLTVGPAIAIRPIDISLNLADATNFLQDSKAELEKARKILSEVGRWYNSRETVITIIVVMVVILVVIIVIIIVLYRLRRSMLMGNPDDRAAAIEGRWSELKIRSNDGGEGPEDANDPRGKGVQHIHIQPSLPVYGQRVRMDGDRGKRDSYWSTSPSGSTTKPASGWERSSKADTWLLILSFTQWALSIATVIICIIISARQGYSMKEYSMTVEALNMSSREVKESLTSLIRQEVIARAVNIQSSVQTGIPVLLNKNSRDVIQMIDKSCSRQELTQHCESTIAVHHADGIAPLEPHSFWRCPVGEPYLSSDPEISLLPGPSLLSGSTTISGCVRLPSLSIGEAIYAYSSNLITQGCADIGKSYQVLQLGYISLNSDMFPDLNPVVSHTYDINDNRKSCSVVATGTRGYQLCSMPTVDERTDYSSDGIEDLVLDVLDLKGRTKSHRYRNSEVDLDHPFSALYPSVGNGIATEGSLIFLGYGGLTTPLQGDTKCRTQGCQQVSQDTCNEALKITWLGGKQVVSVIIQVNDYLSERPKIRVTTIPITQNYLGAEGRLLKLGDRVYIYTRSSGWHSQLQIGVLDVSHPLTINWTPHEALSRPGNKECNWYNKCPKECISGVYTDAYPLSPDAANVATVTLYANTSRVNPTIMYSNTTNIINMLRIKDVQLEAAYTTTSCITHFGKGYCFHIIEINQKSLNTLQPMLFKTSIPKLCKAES"}}, "note": "Substitutions are numbered along the chain they refer to."}
{"substance": "active MMP-9 (COSMO BIO)", "values": [{"measurement": "cleavage of F0 to F1 (Western blotting of protease-treated viral particles)", "setting": "[1]", "result": "MMP-9 cleaved that of the M-deficient SeV vector having the MMP#2 sequence inserted into the F protein"}]}
{"substance": "trypsin (Gibco-BRL)", "values": [{"measurement": "cleavage of F0 to F1 (Western blotting; data not shown)", "setting": "[2]", "result": "for the M-deficient SeV vector into which uPA sequence is inserted, cleavage of F1 was observed in the presence of trypsin when the degradation time was prolonged to four hours"}, {"measurement": "cleavage of F0 to F1 (Western blotting of protease-treated viral particles)", "setting": "[3]", "result": "trypsin cleaved the F protein of the F-unmodified M-deficient SeV vector"}]}
{"substance": "type IV collagenase (Clostridium histolyticum) (ICN)", "values": [{"measurement": "fusogenicity (syncytium formation) relative to the MMP#2 chimera, against concentration of added collagenase", "setting": "[4]", "result": "MMP#6 was found to have two to three times higher fusogenicity compared to MMP#2"}]}
{"substance": "uPA (urokinase-type plasminogen activator)", "values": [{"measurement": "cleavage of F0 to F1 (Western blotting of protease-treated viral particles)", "setting": "[2]", "result": "uPA cleaved that of the M-deficient SeV vector having the uPA sequence inserted into the F protein"}, {"measurement": "syncytia formation in LLC-MK2 (exogenous protease)", "setting": "[2]", "result": "upon further modification of the F protein, showed the formation of syncytia, multinuclear cells, in the presence of uPA"}]}
